For this assay, the target named is prefusion conformation-stabilized SARS-CoV-2 spike ectodomain (S2P_(ecto)) with AviTag and 8x-His tag (SARS-CoV-2) (UniProt P0DTC2). Briefly: ELISA.

Substance “COV2-2130 (human mAb, recombinant IgG1) (antibody)” displayed a percent inhibition of hACE2 binding to S2P (ecto) at 500 ng/mL of 100%.
